Patent publication US20040180823A1

Target: EphA4 receptor extracellular domain fused to a human Fc region (human)
Assay: inhibition of ephrin-A5 AP binding to EphA4

Chain of EphA4 receptor extracellular domain fused to a human Fc region (human) (Q03137 20-547): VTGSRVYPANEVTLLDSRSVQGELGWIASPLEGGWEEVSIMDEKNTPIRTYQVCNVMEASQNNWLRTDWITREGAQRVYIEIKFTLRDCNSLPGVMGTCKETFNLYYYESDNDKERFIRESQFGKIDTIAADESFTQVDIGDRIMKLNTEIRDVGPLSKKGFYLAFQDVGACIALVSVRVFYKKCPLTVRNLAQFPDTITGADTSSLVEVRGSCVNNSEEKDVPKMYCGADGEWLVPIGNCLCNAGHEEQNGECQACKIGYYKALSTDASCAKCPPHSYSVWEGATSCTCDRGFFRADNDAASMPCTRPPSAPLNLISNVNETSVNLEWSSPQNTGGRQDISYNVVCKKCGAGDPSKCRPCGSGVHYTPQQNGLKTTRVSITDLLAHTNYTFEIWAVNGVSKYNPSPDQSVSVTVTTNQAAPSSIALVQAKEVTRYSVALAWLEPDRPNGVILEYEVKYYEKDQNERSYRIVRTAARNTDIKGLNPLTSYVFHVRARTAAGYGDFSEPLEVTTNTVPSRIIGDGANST

Row | concentration required for similar levels of inhibition of ephrin-A5 AP binding | concentration that almost completely inhibited ephrin-A5 AP binding | Substance
1 | 10 µM | – | APY peptide (synthetic, biotinylated)
2 | 100 µM | – | VTM peptide (synthetic, biotinylated)
3 | – | 1 µM | KYL peptide (synthetic, biotinylated)
